Where “and” joins values, the source holds several entries; their conditions need not be identical. Equal entries are not always repeated. Where two headings read alike, the source gives them in different places. Where a SMILES comes first, the peptide text is derived from it. Bridges are numbered along the chain shown (N, C = ends). The star is where a group is joined. DOTA = O=C(O)CN1CCN(CC(=O)O)CCN(CC(=O)*)CCN(CC(=O)O)CC1
Experiments:
[1] = test system: αvβ6 expressing BxPC3 pancreatic cancer xenografts; settings: for Tumor: αvβ6 (+)
Method: (§1) Female athymic nude mice, 4–6 weeks old (Charles River), were subcutaneously shoulder-injected with 10^7 cells suspended in 100 µL PBS. Mice were used for imaging and biodistribution studies when xenografted tumors grew to a diameter of ~1 cm.
(§2) Tumor-bearing Nu/Nu female mice (n = 3 for each probe) were anesthetized using 2% isoflurane in oxygen and injected with ~100 µCi (~0.15 nmol) of the tracers described above via the tail vein. Five-minute static PET scans were acquired on an Inveon PET-CT or Inveon D-PET scanner (Siemens Healthcare, Malvern PA). Images were reconstructed by a two-dimensional ordered expectation maximum subset algorithm and calibrated as described below. ROIs were drawn over the tumor on decay-corrected whole-body images using Inveon Research Workplace (IRW) software (Siemens) or ASIPro VM software (Siemens). ROIs were converted to counts g^−1 min^−1, and %ID g^−1 values were determined assuming a tissue density of 1 g ml^−1.
(§3) Scanner activity calibration was performed to map between PET image units and units of radioactivity concentration. A preweighed 50-mL centrifuge tube was filled with distilled water and ^64CuCl2 (∼9.3 MBq [∼250 μCi] as determined by the dose calibrator) was used to simulate the whole body of the mouse. This tube was weighed, centered in the scanner aperture, and imaged for a 30-min static image, single bed position. From the sample weight and assuming a density of 1 g ml^−1, the activity concentration in the bottle was calculated in units of μCi mL^−1. Eight planes were acquired in the coronal section. A rectangular region of interest (ROI) (counts/pixel/s) was drawn on the middle of eight coronal planes.

[2] = in vivo; settings: female, athymic nude (Nu/Nu), mouse, iv, total radioactivity; for tissue uptake at 2 h: microPET 2 hr; for tissue uptake at 4 h: microPET 4 hr; for tissue uptake at 24 h: microPET 24 hr; for tissue to tissue ratio at 1 h: tumor / muscle, 100 uCi
Method: as §1, §2, §3

[3] = PET, 1 h p.i., average ± SD, n = 3
[4] = microPET 2 hr, individual mice, listed as R01 DOTA Cu-64
[5] = microPET 4 hr, individual mice, listed as R01 DOTA Cu-64
[6] = kidney, PET, 1 h p.i., average ± SD, n = 3
[7] = kidney, microPET 1 hr, individual mice
[8] = liver, PET, 1 h p.i., average ± SD, n = 3
[9] = liver, microPET 1 hr, individual mice
[10] = muscle, PET, 1 h p.i., average ± SD, n = 3
[11] = muscle, microPET 1 hr, individual mice
[12] = tumor (BxPC3 xenograft), Tumor avb6(+), microPET 1 hr, individual mice, one line per mouse
[13] = tumor (BxPC3 xenograft), Tumor avb6(+), individual mice
[14] = tumor (BxPC3 xenograft, αvβ6 positive), Tumor, PET, 1 h p.i., αvβ6 (+), average ± SD, n = 3
[15] = microPET 4 hr, individual mice, listed as R01-MG DOTA Cu-64
[16] = microPET 1 hr, individual mice, listed as Ro1-MR DOTA Cu-64
[17] = microPET 4 hr, individual mice, listed as R01-MR DOTA Cu-64
[18] = microPET 24 hr, individual mice, listed as R01-MR DOTA Cu-64
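Note: shoulder subcutaneous xenografts near 1 cm, tracer given via tail vein, 5-min static PET, ROI activity on decay-corrected images converted to %ID/g with tissue density taken as 1 g/mL.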

SMILES	Tumor [1, 3]	Kidney [1, 3]	tissue uptake at 1 h [2, 6]	tissue uptake at 1 h [2, 7]	tissue uptake at 2 h ([2]; kidney, individual mice)	tissue uptake at 4 h ([2]; kidney, individual mice)	tissue uptake at 24 h ([2]; kidney, individual mice)	tissue uptake at 1 h [2, 9]	tissue uptake at 2 h ([2]; liver, individual mice)	tissue uptake at 4 h ([2]; liver, individual mice)	tissue uptake at 24 h ([2]; liver, individual mice)	tissue uptake at 1 h [2, 10]	tissue uptake at 1 h [2, 11]	tissue uptake at 2 h ([2]; muscle, individual mice)	tissue uptake at 4 h ([2]; muscle, individual mice)	tissue uptake at 24 h ([2]; muscle, individual mice)	tissue uptake at 1 h [2, 12]	tissue uptake at 2 h [2, 13]	tissue uptake at 4 h [2, 13]	tissue uptake at 24 h [2, 13]	further results
CC[C@H](C)[C@@H]1NC(=O)[C@@H](NC(=O)CNC(=O)CN2CCN(CC(=O)O)CCN(CC(=O)O)CCN(CC(=O)O)CC2)CSSC[C@@H]2NC(=O)[C@H](C)NC(=O)CNC(=O)[C@@H]3CCCN3C(=O)[C@@H]3CSSC[C@@H](C(=O)NCC(N)=O)NC(=O)[C@H](Cc4ccc(O)cc4)NC(=O)CNC(=O)[C@H](CC(N)=O)NC(=O)CNC(=O)[C@H](CCCNC(=N)N)NC(=O)[C@H](CSSC[C@H](NC(=O)[C@H](CCCNC(=N)N)NC(=O)[C@H](Cc4ccccc4)NC(=O)[C@H](CC(C)C)NC(=O)[C@H](CC(C)C)NC(=O)[C@H]([C@@H](C)O)NC(=O)CNC(=O)[C@H](CC(C)C)NC(=O)[C@H](CC(=O)O)NC(=O)[C@H]([C@@H](C)O)NC(=O)[C@H](CCCNC(=N)N)NC(=O)[C@H](CCSC)NC(=O)[C@H](CC(N)=O)NC(=O)[C@H](CC(C)C)NC1=O)C(=O)N[C@@H](CCCNC(=N)N)C(=O)N[C@@H](CCCNC(=N)N)C(=O)N[C@@H](CC(=O)O)C(=O)N[C@@H](CO)C(=O)N[C@@H](CC(=O)O)C(=O)N3)NC(=O)[C@H]([C@@H](C)CC)NC2=O [[^64Cu]DOTA-R01, metal not drawn]	~ 3 %ID g^−1	~ 30 %ID g^−1	30.3 ± 2.33 %ID/g	32.9 %ID/g	34.3 %ID/g	29.8 %ID/g	11.5 %ID/g	2.34 %ID/g	1.82 %ID/g	1.79 %ID/g	2.93 %ID/g	0.433 ± 0.008 %ID/g	0.427 %ID/g	0.404 %ID/g	0.399 %ID/g	0.37 %ID/g	2.99 %ID/g	2.87 %ID/g	2.39 %ID/g	1.85 %ID/g	Muscle ([1]; microPET 1 hr, individual mice, listed as Ro1 DOTA Cu-64): 0.4306 %ID/g; Muscle [1, 4]: 0.407 %ID/g; Tumor avb6(+) [1, 4]: 2.883 %ID/g; Kidney [1, 5]: 29.77 %ID/g; Muscle [1, 5]: 0.4024 %ID/g; Muscle ([1]; microPET 24 hr, individual mice, listed as R01 DOTA Cu-64): 0.3725 %ID/g; tissue uptake at 1 h [2, 8]: 2.26 ± 0.11 %ID/g; tissue uptake at 1 h [2, 14]: 3.07 ± 0.17 %ID/g; tissue to tissue ratio at 1 h [2]: 7.09 ± 0.27
CC[C@H](C)[C@@H]1NC(=O)[C@@H](NC(=O)CNC(=O)CN2CCN(CC(=O)O)CCN(CC(=O)O)CCN(CC(=O)O)CC2)CSSC[C@@H]2NC(=O)[C@H](C)NC(=O)CNC(=O)[C@@H]3CCCN3C(=O)[C@@H]3CSSC[C@@H](C(=O)NCC(N)=O)NC(=O)[C@H](Cc4ccc(O)cc4)NC(=O)CNC(=O)[C@H](CC(N)=O)NC(=O)CNC(=O)[C@H](CCCNC(=N)N)NC(=O)[C@H](CSSC[C@H](NC(=O)[C@H](CCCNC(=N)N)NC(=O)[C@H](Cc4ccccc4)NC(=O)[C@H](CC(C)C)NC(=O)[C@H](CC(C)C)NC(=O)[C@H]([C@@H](C)O)NC(=O)CNC(=O)[C@H](CC(C)C)NC(=O)[C@H](CC(=O)O)NC(=O)[C@H]([C@@H](C)O)NC(=O)[C@H](CCCNC(=N)N)NC(=O)CNC(=O)[C@H](CC(N)=O)NC(=O)[C@H](CC(C)C)NC1=O)C(=O)N[C@@H](CCCNC(=N)N)C(=O)N[C@@H](CCCNC(=N)N)C(=O)N[C@@H](CC(=O)O)C(=O)N[C@@H](CO)C(=O)N[C@@H](CC(=O)O)C(=O)N3)NC(=O)[C@H]([C@@H](C)CC)NC2=O [[^64Cu]DOTA-R01-MG, metal not drawn]	~ 3 %ID g^−1	~ 30 %ID g^−1	28.4 ± 2.61 %ID/g	25.3 %ID/g	26.9 %ID/g	25.6 %ID/g	10.8 %ID/g	1.77 %ID/g	2.38 %ID/g	2.4 %ID/g	3.39 %ID/g	0.472 ± 0.003 %ID/g	0.471 %ID/g	0.398 %ID/g	0.385 %ID/g	0.394 %ID/g	2.93 %ID/g	2.27 %ID/g	2.22 %ID/g	2.52 %ID/g	Liver [1, 3]: 2.14 ± 0.38 % injected dose gram^−1; Tumor avb6(+) ([1]; microPET 1 hr, individual mice, one line per mouse, listed as Ro1-MG DOTA Cu-64): 2.952 %ID/g; Muscle ([1]; microPET 1 hr, individual mice, listed as Ro1-MG DOTA Cu-64): 0.4707 %ID/g; Muscle ([1]; microPET 2 hr, individual mice, listed as R01-MG DOTA Cu-64): 0.4023 %ID/g and 0.398 %ID/g; Liver [1, 15]: 2.382 %ID/g; Muscle [1, 15]: 0.3296 %ID/g; Muscle ([1]; microPET 24 hr, individual mice, listed as R01-MG DOTA Cu-64): 0.3985 %ID/g and 0.3942 %ID/g; tissue uptake at 1 h [2, 14]: 2.74 ± 0.35 %ID/g; tissue to tissue ratio at 1 h [2]: 5.8 ± 0.72
CC[C@H](C)[C@@H]1NC(=O)[C@@H](NC(=O)CNC(=O)CN2CCN(CC(=O)O)CCN(CC(=O)O)CCN(CC(=O)O)CC2)CSSC[C@@H]2NC(=O)[C@H](C)NC(=O)CNC(=O)[C@@H]3CCCN3C(=O)[C@@H]3CSSC[C@@H](C(=O)NCC(N)=O)NC(=O)[C@H](Cc4ccc(O)cc4)NC(=O)CNC(=O)[C@H](CC(N)=O)NC(=O)CNC(=O)[C@H](CCCNC(=N)N)NC(=O)[C@H](CSSC[C@H](NC(=O)[C@H](CCCNC(=N)N)NC(=O)[C@H](Cc4ccccc4)NC(=O)[C@H](CC(C)C)NC(=O)[C@H](CC(C)C)NC(=O)[C@H]([C@@H](C)O)NC(=O)CNC(=O)[C@H](CC(C)C)NC(=O)[C@H](CC(=O)O)NC(=O)[C@H]([C@@H](C)O)NC(=O)[C@H](CCCNC(=N)N)NC(=O)[C@H](CCCNC(=N)N)NC(=O)[C@H](CC(N)=O)NC(=O)[C@H](CC(C)C)NC1=O)C(=O)N[C@@H](CCCNC(=N)N)C(=O)N[C@@H](CCCNC(=N)N)C(=O)N[C@@H](CC(=O)O)C(=O)N[C@@H](CO)C(=O)N[C@@H](CC(=O)O)C(=O)N3)NC(=O)[C@H]([C@@H](C)CC)NC2=O [[^64Cu]DOTA-R01-MR, metal not drawn] ({DOTA}-GCILNRRTDLGTLLFRCRRDSDCPGACICRGNGYCG-NH2; disulfide 2-27, 17-29, 23-35)	~ 3 %ID g^−1	~ 90 %ID g^−1	90 ± 3.64 %ID/g	94 %ID/g	90.5 %ID/g	82.3 %ID/g	37.8 %ID/g	4.66 %ID/g	3.9 %ID/g	3.44 %ID/g	6.99 %ID/g	0.536 ± 0.004 %ID/g	0.533 %ID/g	0.516 %ID/g	0.467 %ID/g	0.513 %ID/g	3.27 %ID/g	3.46 %ID/g	2.55 %ID/g	3.2 %ID/g	kidney uptake relative to the other two candidates ([1]; 1 h p.i.): ~ 3 fold; Tumor avb6(+) ([1]; microPET 1 hr, individual mice, one line per mouse, listed as Ro1-MR DOTA Cu-64): 3.249 %ID/g; Liver [1, 16]: 4.713 %ID/g; Muscle [1, 16]: 0.5407 %ID/g and 0.5349 %ID/g; Muscle ([1]; microPET 2 hr, individual mice, listed as R01-MR DOTA Cu-64): 0.5174 %ID/g; Kidney [1, 17]: 82.8 %ID/g; Liver [1, 17]: 4.22 %ID/g; Muscle [1, 17]: 0.4687 %ID/g; Kidney [1, 18]: 38.15 %ID/g; Muscle [1, 18]: 0.5142 %ID/g; Tumor avb6(+) [1, 18]: 3.535 %ID/g; tissue uptake at 1 h [2, 8]: 4.63 ± 0.09 %ID/g; tissue uptake at 1 h [2, 14]: 3.45 ± 0.34 %ID/g; tissue to tissue ratio at 1 h [2]: 6.43 ± 0.58

From publication PMC6791878, “Evaluation of integrin αvβ6 cystine knot PET tracers to detect cancer and idiopathic pulmonary fibrosis” (Nature Communications, 2019)
